From the DeepSol protein solubility set

Experiment: soluble on expression in E. coli; label from the status in PepcDB or PDB records

| Sequence | soluble on expression in E. coli |
| --- | --- |
| MMNEPQVSFITVCYNGFKDTCELIESLQTHVHSVSYEIIVVDNASREDEATKIKELYSDIVTLRSESNLGFSGGNNLGIRVAKGAYIFLINNDTYVESDGFHYLTERLESQKNIGAVSPKIRFAFPPQNIQFAGFTSLSAITIRNEMTGFGCPDDGTFDTPHTTPYLHGAALMVKREVIEKVGEMPEIFFLYYEEMDWCTQMTNAGYELWYEPRCTVFHKESQSTGQFSKLRTFYMTRNRLLYTRRNRKGAQRLLSILYQSTIAAGKNSLQFAVKGRFDLFAAVWKGVVRSFSVTSPIRLEHHHHHH | not soluble |
| MVKVIFFDLDDTLVDTSKLAEIARKNAIENMIRHGLPVDFETAYSELIELIKEYGSNFPYHFDYLLRRLDLPYNPKWISAGVIAYHNTKFAYLREVPGARKVLIRLKELGYELGIITDGNPVKQWEKILRLELDDFFEHVIISDFEGVKKPHPKIFKKALKAFNVKPEEALMVGDRLYSDIYGAKRVGMKTVWFRYGKHSERELEYRKYADYEIDNLESLLEVLARESSSNKKVHPPRQQI | soluble |
| MSLELVSFVKSHIDQAVYFSTITSNPIEFNLPESLSLDTTDIENDIKTSCDEIFYSTGSYIPPMLNTLEQHLNLRIEYFNNLIEFTKINFNYKISPTVKLYLIEKISILKCCLALFKYISDKAILSNIWRDLVLNSFNDSSLEEFVLGKLDEFPRLFTIFLNDLSAKIVGFNDVEEKVKIVDLLITCVYDAVLENCEKSIRYDALQLDPLELDNKPMWFTNLTNIKAMNNIFFSFIFPDNDLSVENKQRLLTVVKLLYYVINQNMIWHKSMKQIETEEYKEVEALYNDNHANWIHVLCNIGVHEEALQICEFYHDLGGLVEILEKLDFEISRELYDQYFKMFGYEFATILFEYYINAKDLKALFFKFPNHHDLLNKFLLSSPPKYYKYAWIQEIIDNDYRKASDILTTLSVGEAGDGCEISERQLHLNIAKLSGLVDENFDANQMIEIQRDIDTIDHQTRIKKLLEEDPTGISMNQAFANNEFGEKFQETKYCIQNDKSINIKYIIDMLSMMDSVENLYEALKLTCIYRHSLGYEVSKYFQQSIWRRCIIEESKDGVIQLEGENSKIYQLLVKYFEGKLYEYDCKLPFVSFLMDRIGISMNFLSIIYGNDNNVLVSISDSIEREYHDLIRIGDTLESQLSTIIGSANESTGNECTINYETKSIEYEGHHHHHH | soluble |
| MVDSYDDSLDGEKSKTQVKRELHALVDLGERLTTLKADVLAKLPLTDALRKALAEAPKHTANIARKRHILFIGKLMRDQDQEAILVLLDQLDASTRQYNERFHNLERWRDRLIAGDDADLEKFVIEYPDADRQQLRSLIRQAQHEVARNKPPATSRKIFKYIRELDELQ | soluble |
| MCGLLGMLSSTGQASKYAAAIESALPCMHHRGPDEAGTWHDDHAVFGFNRLSIIDLEHSHQPLRWGPEGEPDRYAMTFNGEIYNYVELRKKLQDLGYTFNTSGDGETIAVGFHHWGADVVLHLRGMFGIAIWDTKEQRLFLARDQFGIKPLYFATTEAGTVFASEKKCILGMADAIGLDLGLDQRAIEHYIDLQYVPEPESLHQHIRRLESGCFAFVSVGGNVEQTRYFRPQFPAQEF | not soluble |
| MAKFIQKRLFASYIIRKNYYEIIGVSASATRQEIRDAFLKKTKQLHPDQSRKSSKSDSRVGWATGSSETEQFMLVKEAYDVLRNEEKRKEYDLAFSREGGFLMEATHKTQEMSTQRRNIQRAEWSADVIPDAKRNSKKVVYSHFRNPEDEYLREKQKNRM | not soluble |
| MTKPVSISKKPRKQHTPEFRNEALKLAERIGVAAAARELSLYESQLYAWRSKQQQQMSSSERESELAAENVRLKRQLAEQAEELSILQKAATYFAKRLK | not soluble |
| MRVKHFELLTDEGKTFTHVDLYGKYTILFFFPKAGTSGCTREAVEFSRENFEKAQVVGISRDSVEALKRFKEKNDLKVTLLSDPEGILHEFFNVLENGKTVRSTFLIDRWGFVRKEWRRVKVEGHVQEVKEALDRLIEEDLSLNKHIEWRRARRALKKDRVPREELELLIKAAHLAPSCMNNQPWRFVVVDEEELLKKIHEALPGGNYWMKNAPALIAVHSKKDFDCALPDNRDYFLFDTGLAVGNLLVQATQMGLVAHPVAGYDPVKVKEILKIPEDHVLITLIAVGYLGDESELSEKHRELERSERVRKELSEIVRWNL | soluble |
| MEGDGSDPEPPDAGEDSKSENGENAPIYCICRKPDINCFMIGCDNCNEWFHGDCIRITEKMAKAIREWYCRECREKDPKLEIRYRHKKSRERDGNERDSSEPRDEGGGRKRPVPDPDLQRRAGSGTGVGAMLARGSASPHKSSPQPLVATPSQHHQQQQQQIKRSARMCGECEACRRTEDCGHCDFCRDMKKFGGPNKIRQKCRLRQCQLRARESYKYFPSSLSPVTPSESLPRPRRPLPTQQQPQPSQKLGRIREDEGAVASSTVKEPPEATATPEPLSDEDLPLDPDLYQDFCAGAFDDHGLPWMSDTEESPFLDPALRKRAVKVKHVKRREKKSEKKVMERKEERYKRHRQKQKHKDKWKHPERADAKDPASLPQCLGPGCVRPAQPSSKYCSDDCGMKLAANRIYEILPQRIQQWQQSPCIAEEHGKKLLERIRREQQSARTRLQEMERRFHELEAIILRAKQQAVREDEESNEGDSDDTDLQIFCVSCGHPINPRVALRHMERCYAKYESQTSFGSMYPTRIEGATRLFCDVYNPQSKTYCKRLQVLCPEHSRDPKVPADEVCGCPLVRDVFELTGDFCRLPKRQCNRHYCWEKLRRAEVDLERVRVWYKLDELFEQERNVRTAMTNRAGLLALMLHQTIQHDPLTTDLRSSADR | soluble |
| MTVDSIPLNTGAQLPLFGLGTWQVKDEAELTVALRAALDAGYRLIDTAHLYQNEHIIGKVLHEYISSGKLKREDIFVTSKLPFTAHAPEDVPKCVESQLKALQLEYIDLYLIHCPFPFKHQEGSFAPLMENGELAVTEIAHIDTWRALEKLYKEGKLKALGVSNFSCNQLQALYDAAEVKPANQQVECHIYWPQQELRALCKKLGVTVTAYAPLGSPGRKAARPDGVWPEGDPLLEPIVKQLAAKYHKTAAQILIRHLTQHGISTIPKSVSPDRIVENISTFDFKLSDEDMHTLNSIETRTRLFIADFAVKHPFFPHDDIDTSKVPKVGIRLH | soluble |
| MGSDKIHHHHHHMMKLIPRSSDISPGIDGICPGPFPPNGFTVLTDAAYGNGDCFGLYWPIGQEHKLPIVCETYHDEWRIVPAFSSIKKFEEWLEVNDDDPHENGISIEDQDFAANLFRVARKCLSTGRLDDALPLLQRATEQLPEVSEYWLALAIQYRRCKKTEAAAQAALNAYLGNWAFGVPDNKVIHLLSQAADVPNFQDDPVIQCIKEQGLDLSFGGTKENNNYPLMQMCVDTYFAQRKPLQALTLLHNYAWIMSSETTAFQERYDFNIDEWRAKFRQLCLEYFGDSRTQFT | not soluble |
| MSAQVQDLTPIKGVTYYYPPHDAVLVFKDGAAEIPYGGLPVPLLEEDYASLDGEPSYDAVGRGVYQTLRTNPDCIHCAAYATLLRDAYPHYLAELASHAIMLDSKDVEVPYIDRKIVSLKVLSLLEPDNAGLPLEIGRAYLDRGLRLSALHMSTVSIYRAEHFLRRALELTPEDGRALRLLGEVCYLLGKYEEAASCWLDTLDLADADEAERFRVRLARISEGRLPLIAPVDYLEAIGAAFTCFHTGDYEEAVAILQDVLMDGIFCAEFPIADIHCVIGKSFVQLDMPRYAEESFRAALQLDPAHEESLACLRKVTGEELEHHHHHH | soluble |
| MTEPIFMVGARGCGMTTVGRELARALGYEFVDTDIFMQHTSGMTVADVVAAEGWPGFRRRESEALQAVATPNRVVATGGGMVLLEQNRQFMRAHGTVVYLFAPAEELALRLQASLQAHQRPTLTGRPIAEEMEAVLREREALYQDVAHYVVDATQPPAAIVCELMQTMRLPAA | soluble |
| MVQEIIVDSGDIEFLTTPKEYKQQLLSLIECARQRIFITALYLQDDEAGREILHALYQAKANFPTIEINIFVDFNRGQRGLIGEKASLGNRALYLKLAHEYPHTVNIYGVAVKRKEVFGVLHLKGMVFDEKLFYTGASINDIYLHQGERYRLDRYCTINSAALADSFCHYLSDTFIDSGLAPLLNQEWLPDAVEQKKNLIALKLQLKKSHYIVAQQQGLSQSKIVSNKALITPLVGFGRRKNQLNRATRHLVQKADDNMVLFTPYFNLPHSLAKDVIRALKRGVKTTVVVGDKTANDFFIGNDEDFSTIGIIPYVYEMLLKRFVKRYQNFIDQGLLNIHLWKDKDNSFHLKGLRVDDRYHLITGSNLNPRAWALDLENGLVVDDVNKQLLQKTDEELLGILVNTSKVSHFSDIDSVEDYPEKPQKLLKKIRVAQIDRVLKRFLLEHHHHHH | soluble |
| MFDRYESGERAVLVHINFTQEGEWEDLAEFEMLVSSAGVETLQVVTGSRQSPHPKYYVGEGKAQEIATTVHLTGAEIVIFNHSLSPAQERNLEALCKCRVLDRTGLILDIFAQRARTHEGKLQVELAQLRHISTRLIRGWTHLERQKGGIGLRGPGETQLETDRRLLRERIKAILRRLEKVAKQREQGRRARNRAEIPTISLVGYTNAGKSTLFNRITEAGVYAADQLFATLDPTLRKMELADVGPAILADTVGFIRHLPHDLVAAFKATLQETQEADILLHVVDASDERFRENIQAVHEVLEEIDAHEVPTLVVMNKIDNLESQTPRIERDEEGVPRAVWVSAMEGLGIELLFDALTERLASQMVEHQLRIPPQYQGRFRSTFFQMKCIQREEYDQDGNLLIDIRMQQVDWSRLEKREGAVLTDFIVTLEHHHHHH | not soluble |
| MKMELLLIIITQDAYIGQRFTKRSSYLCGIYDKTANTMKEPFQIPTSKDIENLIGTDLYDVWNSLCQRIEKSYEMELLWNRGGKAWTYEYKYRKGGKTLCALYAKEKTLGFMVILGKDERAKFEIQRGQFSNEVQMIYDAATTFHDGKWIMFELKDTKLFNDMERLLLIKRKPNRKAE | soluble |
| MAHHHHHHMNRSASLPSASPSLSTMRTITVALCASSKKHQQSFDALREAGKLHNERLLLMRQHSASRQAGCGDVSGEAGEASTAAPQEGCASGSRGMSSHSRSRRTSRATSEVLAHPARSRSTTEGSLSCAALSNCLFRFLSLNYDAQRHRMVLCIDGDIKEVHQSSAAAFAQDGSKANAQQSPSVDEHAGTDSTVRGEGEPSQSALMDEVDVVLHKVATFGTPVAIRALHQWYNGAQKRRSRQRRAPLIVVDPLEKVQLLMTRSMLCKLLNNVGDDGQPIALIPRTFVWDCPSDAACRHARRTNGSSAATPLGIHSFTSMEEQEARANGTAAEHWWIAKPDESTGAAFTHHLVMWLTRDADVSVPTAVKAALPTEACRFILQELYVYALPVVLKVYCVGSHISVKVNPTVSLLNYLWEHTRGSTLADVPVAMDSQDKAFFSTVASVSTSRSQPTLSAMTSSTDDDALPATSPTMNATNAAGAPPSPTELPQGTSSESASAEQSLIAWESMVVPVDYWNAFLAPGTPAYTAISKLAQDLSGDAGVGLSLYGFDLVLVPQYLAHTYQRKGARGIGRTEGATVRYEGVAPSLSKVAHRSADTAKPVQRIPASHSMRKLPGAGASAPPSPVSQLFRASDMFDLASGAPTSLLLDSIPVVIDVNYFPGYKGVAEVNQHMLELIALKSMHLQDGSSNRAWHADTATGAEAKKRRCSMM | not soluble |
